PMC5531734 (Molecular Biology of the Cell, 2017)

Molecular target: Na/K-ATPase α1-β2 (ATP1A1 with ATP1B2) (human, UniProt P05023-1 1-1023; P14415 1-290)
Experiment: binding to transfected cells, Western blot of washed cell pellets

B1: retinoschisin (natural protein)
chain: STEDEGEDPWYQKACKCDCQGGPNALWSAGATSLDCIPECPYHKPLGFESGEVTPDQITCSNPEQYVGWYSSWTANKARLNSQGFGCAWLSKFQDSSQWLQIDLKEIKVISGILTQGRCDIDEWMTKYSVQYRTDERLNWIYYKDQTGNNRVFYGNSDRTSTVQNLLRPPIISRFIRLIPLGWHVRIAIRMELLECVSKCA
Question: For B1, which “retinoschisin binding relative to α3-β2 (densitometry)” value is on record?
Answer: 1.5 fold of binding to α3-β2
